Target: T1, LGP2 regulatory domain (LGP2 RD, residues 537–678), wild type (human, UniProt Q96C10 537-678, biotinylated (biotin added at 3:1 molar ratio) for biolayer interferometry)
T1 construct: also called LGP2 RD WT; WT
T1 sequence (looked up): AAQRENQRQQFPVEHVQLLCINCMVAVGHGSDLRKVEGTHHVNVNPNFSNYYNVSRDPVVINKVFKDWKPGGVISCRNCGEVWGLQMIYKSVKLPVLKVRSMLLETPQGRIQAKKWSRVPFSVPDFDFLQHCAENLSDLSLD
Test: BLI
Conditions: both partners purified

B1: TBEV NS5 protein, purified (natural protein)
chain: GGSEGDTLGDLWKRKLNGCTKEEFFAYRRTGILETERDKARELLKRGETNMGLAVSRGTAKLAWLEERGYATLKGEVVDLGCGRGGWSYYAASRPAVMSVKACAIAGKGHETPKMVTSLGWNLIKFRAGMDVFSMQPHRADTIMCDIGESNPDAVVEGERTRKVILLMEQWKNRNPTATCVFKALAPYRPEVTEALHRFQLQWGGGLVRTPFSRNSTHEMYYSTAITGNIVNSVNIQSRKLLARFGDQRGPTRVPELDLGVGTRCVVLAEDKVKEKDVQERISALREQYGETWHMDREHPYRTWQYWAATACANRVGGALINGVVKLLSWPWNAREDVVRMAMTDTTAFGQQRVFKEKVDTKAQEPQPGTKVIMRAVNDWILERLARKSKPRMCSREEFIAKVKSNAALGAWSDEQNRWSSAKEAVEDPAFWQLVDEERERHLAGRCAHCVYNMMGKREKKLGEFGVAKGSRAIWYMWLGSRFLEFEALGFLNEDHWASRGSSGSGVEGISLNYLGWHLKGLSTLEGGLFYADDTAGWDTKVTNADLEDEEQLLRYMEGEHKQLAATIMQKAYHAKVVKVARPSRDGGCIMDVITRRDQRGSGQVVTYALNTLTNIKVQLIRMMEGEGVIEASDAHNPRLLRVERWLRDHGEERLGRMLVSGDDCVVRPVDDRFSGALYFLNDMAKTRKDIGEWDHSVGFSNWEEVPFCSHHFHELVMKDGRTLIVPCRDQDELVGRARVSPGCGRSVRETACLSKAYGQMWLLSYFHRRDLRTLGLAICSAVPVDWVPAGRTTWSIHASGAWMTTEDMLDVWNRVWILDNPFMHSKEKIAEWRDVPYLPKSHDMLCSSLVGRKERAEWAKNIWGAVEKVRKMIGQEKFKDYLSCMDRHDLHWESKLESSII
With B1 the Kd was 1200 ± 800 nM.

— article PMC10501626 (PLOS Pathogens, 2023)
